Substitutions are numbered along the chain they refer to.
B1: ACI-1108H1_4303A3 (bispecific antibody, V domains shown)
VH 1: EVKLVESGGGLVQPGGSMKLSCTASGFTFSDAWMNWVRQSPEKGLEWVAEIRNKAHNHATNYAESVKGRFTISGDDSKSSVYLQMNNLRAEDTGIYYCTIYSFWGQGTLVTVSA
VL 1: SIVMTQTPKFLLVSAGDRVTITCKASQSVTNYVAWYHQKPGQSPKLLIYSASNRYSGVPDRFTGSGYGTDFTFTINTVQTEDLAVYFCQQDYRIPYTFGGGTKLEIK
VH 2: QVQLQQSGAELVRPGASVTLSCKASGYTFTDYEMHWVKQTPVHGLEWIGVIDPETGGAVQNQKFKGKAILTADNSSSTAYMDLRSLTSEDSAVYNCAMGAALRLAYWGQGTLVTVSS
VL 2: DVLMTQTPLSLPVSLGDQASISCRSSQSIVHSNGNSYLEWYLQKPGQSPKLLIYKVSNRFSGVPDRFSGSGSGTDFTLKINRVEAEDLGVYYCFQGSHVPFTFGSGTKLEIK
notes: biparatopic; Arm A ACI-7067-1108H1-Ab1, Arm B ACI-7088-4303A3-Ab1; engineered constant domains not specified
B2: ACI-4317A4_1113D10 (bispecific antibody, V domains shown)
VH 1: EVQLQQSGAELVRPGASVKLSCTASGFNIKDDYMHWVKQRPEQGLEWIGWIDPENGDTEYASKFQGKATMTADTSSNTAYLQLSSLTSEDTAVYYCKTWGTTQALFPYWGQGTLVTVSA
VL 1: DIVMTQSQKFMYTSVGDRVSITCKASQNVGNAVGWYQQKAGQSPKLLIHSASNRYTGVPDRFTGTGSGTDFTLTINNMQSEDLADYFCQQYRSYPLTFGAGTKLELK
VH 2: EVQLVESGGGLVQPKGSLKLSCAASGFTFNTYALHWVRQAPGKGLEWVARIRSKSSNYATYYADSVKDRFTISRDDSQSMLYLQMNNLKTEDTGMYYCVRGGVSPFDYWGQGTTLTVSS
VL 2: QIVLTQSPAIMSASPGEKVTMTCSASSSVSYMHWYQQKSGTSPKRWIYDTSKLASGVPARFSGSGSGTSYSLTISSMEAEDSATYYCQQWSNNPPTFGGGTKLEIK
notes: biparatopic; Arm A ACI-7088-4317A4-Ab1, Arm B ACI-7067-1113D10-Ab1; engineered constant domains not specified
B3: ACI-3108C10_5A12 (bispecific antibody, V domains shown)
VH 1: ELQLVESGGGLVRPGGSLKLSCATSGFTFRNYAMSWVRQTPAKRLEWVATISDGGTYTFYSDNVKGRFTISRDNVKNTLYLQMSHLKSEDTAMYYCSRAGSGHWGQGTTLTVSS
VL 1: not shown
VH 2: QVHLKQSGADLVRPGASVKLSCKASGYTFTDYYINWVKQRPGQGLEWIARIYPGSGNTYYNEKFKGRATLSAEKSSTTAYMQLSSLTSEDSAVYFCVVGYYGAWGQGTTLTVSS
VL 2: DVVMTQTPLSLPVSLGDQASISCRSSQSLVHSNGKTHLHWYLQKPGQSPKLLIYKVSNRFSGVPDRFSGSGSGTDFTLKISRVEAEDLGVYFCSQSTHVPWTFGGGTKLEIK
notes: biparatopic; Arm A ACI-7079-3108C10-Ab2, Arm B ACI-8033-5A12-Ab1; engineered constant domains not specified
B4: ACI-1101C8_5A12 (bispecific antibody, V domains shown)
VH 1: EVQLVESGGGLVQPKGSLKLSCAASGFSFNIYAMNWVRQAPGKGLEWVARIRSKSNNYATYYADSVKDRFTISRADSESMLYLQMNNLKTEDTAMYYCVRVGLRFYAMDYWGQGTSVTVSS
VL 1: B1 VL 2 with S36T, N81S, H98Q, V99G, F101L, S105A, I111L
VH 2: B3 VH 2
VL 2: B3 VL 2
notes: biparatopic; Arm A ACI-7067-1101C8-Ab2, Arm B ACI-8033-5A12-Ab1; engineered constant domains not specified
B5: ACI-27D8_4317A4 (bispecific antibody, V domains shown)
VH 1: EVQLVESGGGLVQPKGSLKLSCAASGFTFNTYAMNWVRQAPGKGLEWVARIRSKSNNFATYYADSVKDRFTISRDESESMLYLQMNNLKAEDTAMYYCVRSFDYWGQGTTLTVSS
VL 1: DIKMTQSPSSMYASLGERVTITCKASQDINSYLSWFQQKPGKSPKTLIYRAKRLVDGVPSRFSGSGSGQDYSLTISSLEYEDMGIYYCLQYDEFPFTFGSGTKLEIK
VH 2: B2 VH 1
VL 2: B2 VL 1
notes: biparatopic; Arm A ACI-8033-27D8-Ab1, Arm B ACI-7088-4317A4-Ab1; engineered constant domains not specified
B6: ACI-27D8_4301D5 (bispecific antibody, V domains shown)
VH 1: B5 VH 1
VL 1: B5 VL 1
VH 2: QVQLQQSGPELVRPGASVKISCKASGYRFTSYYIHWVKQRPGQGLEWIGWIYPGSDNTKHNDKFKGKATLTADTSSSTAYMQLSSLTSEDSAVYFCARDYDVGFGYWGQGTLVTVSS
VL 2: not shown
notes: biparatopic; Arm A ACI-8033-27D8-Ab1, Arm B ACI-7088-4301D5-Ab2; engineered constant domains not specified
B7: ACI-1101C8_4317A4 (bispecific antibody, V domains shown)
VH 1: B4 VH 1
VL 1: B1 VL 2 with S36T, N81S, H98Q, V99G, F101L, S105A, I111L
VH 2: B2 VH 1
VL 2: B2 VL 1
notes: biparatopic; Arm A ACI-7067-1101C8-Ab2, Arm B ACI-7088-4317A4-Ab1; engineered constant domains not specified
B8: ACI-1101C8_4301E12 (bispecific antibody, V domains shown)
VH 1: B4 VH 1
VL 1: B1 VL 2 with S36T, N81S, H98Q, V99G, F101L, S105A, I111L
VH 2: DVQLQESGPGLVKPSQSLSLTCSVTGYSITSGYYWNWIRQFPGNKLEWMGYISDDGSKNYNPSLKNRISITRDTSKNQLFMKLNSVTTEDTATYYCARGDSRLGQGTLVTVSA
VL 2: not shown
notes: biparatopic; Arm A ACI-7067-1101C8-Ab2, Arm B ACI-7088-4301E12-Ab2; engineered constant domains not specified

How the values were obtained:
[1] = molecular target: T1, alpha-synuclein fibrils (UniProt P37840 1-140); test: SPR, captured bAb; head says nM, kd/ka gives M
Experimental: (§1) Any non-covalently bound antibodies were removed by three successive regenerations of 10 mM Glycine pH 1.7 (GE Healthcare, 28-9950-84). Immobilization levels were evaluated following ethanolamine capping (Bound) and finally following regeneration (Final). Non-covalent immobilization of alpha-synuclein biparatopic antibodies on flow cell 2 of channels 1-8 was performed at a final concentration of 5 μg/mL, diluted in 10 mM sodium acetate pH 5.5 (GE Healthcare, BR-1003-52). Non-covalent immobilization of an isotype control antibody on flow cell 1 of channels 1-8 was performed at a final concentration of 5 μg/mL, diluted in 10 mM sodium acetate pH 5.5 (GE Healthcare, BR-1003-52).
(§2) Binding affinity of alpha-synuclein biparatopic antibodies to monomeric or fibrillar alpha-synuclein species was performed using a single-cycle kinetics method. The instrument was primed with 1×HBS-P+ buffer (10× stock from GE Healthcare, BR-1003-52 diluted in Milli-Q water). Injections of monomeric alpha-synuclein (Boston Biochem, SP-485), increasing in concentration from 0.62-50 nM prepared from serial 2-fold dilutions, were performed with contact times of 300 sec/injection at a flow rate of 30 μL/min. A dissociation phase of 900 sec followed the final 50 nM injection. Regeneration of the sensor to the goat anti-human antibody layer was achieved using 3 regenerations of 10 mM Glycine pH 1.7. […] Regeneration of the sensor to the goat anti-mouse antibody layer was achieved using 3 regenerations of 10 mM Glycine pH 1.7. Results obtained from single-cycle kinetics were evaluated by Biacore 8K evaluation software with 1:1 binding homogenous Langmuir model with a preceeding buffer injection as a blank subtraction. The following kinetic parameters were obtained: on-rate (ka), off-rate (kd), affinity constant (KD, ratio of kd by ka), maximum response (Rmax), and goodness of fit (Chi2).
(§3) Kinetic constants were determined from 1:1 homogenous binding models for all cases.

[2] = molecular target: T2, monomeric alpha-synuclein (UniProt P37840 1-140); test: SPR, captured bAb; head says nM, kd/ka gives M
Experimental: as §1, §2, §3

[3] = molecular target: T1, alpha-synuclein fibrils; test: SPR, captured bAb
Experimental: as §1, §2, §3

[4] = molecular target: T2, monomeric alpha-synuclein; test: SPR, captured bAb
Experimental: as §1, §2, §3

Binder	Kd [1] [nM]	Kd [2] [nM]	koff [3] [s⁻¹]	kon [3] [M⁻¹ s⁻¹]	koff [4] [s⁻¹]	kon [4] [M⁻¹ s⁻¹]
B1	0.203	0.903	1.49e-05	73600	0.00129	1.43e+06
B2	0.158	0.486	7.77e-06	49200	0.000675	1.39e+06
B3	10.8	8.82	0.000113	10500	8.05	9.13e+08
B4	1.31	3.82	6.13e-05	46700	0.0042	1.1e+06
B5	0.887	3.57	5.8e-05	65400	0.0283	7.94e+06
B6	16.7	107	0.000219	13100	0.147	1.37e+06
B7	0.433	0.671	3e-05	69300	0.00158	2.35e+06
B8	0.0215	1.98	9.65e-07	44900	0.000444	224000
